From the RNAGym collection of RNA variant scans (doi:10.7554/elife.80360)

B1: CPEB3 Ribozyme (parent)
chain: GGGGGCCACAGCAGAAGCGUUCACGUCGCGGCCCCUGUCAGAUUCUGGUGAAUCUGCGAAUUCUGCUGU

Variants of: B1
Assay: self-cleavage, relative activity (ratio to wild type); higher = more cleavage; co-transcriptional

Variant	self-cleavage
A10U A23U	1
A10U A23C	0.968
A10U A23G	0.983
A10G G68U	0.917
A10G G68C	0.941
A10G G68A	0.943
A10G G47A	0.986
A10G G47C	0.927
A10U C45U	0.958
A10U C45A	0.998
A10G U36G	0.155
A10G U36C	0.761
A10G U36A	0.117
A10G A59U	0.647
A10G A59C	0.517
A10U A13C	0.808
A10U C33A	0.977
A10U C33U	0.971
A10U C33G	0.922
A10G C22G	0.145
A10G C22U	0.23
A10U	1
A10G G31U	0.868
A10G G31A	0.953

Variant	self-cleavage
A10G C57G	0.199
A10G C57A	0.322
A10G C57U	0.284
A10U A52G	1.03
A10U A52C	1
A10U A51C	0.962
A10G U69A	0.981
A10G U69C	1.06
A10G U69G	0.978
A10G U49A	0.932
A10G U49C	0.99
A10G U49G	0.907
A10G C34G	0.82
A10G C34A	0.89
A10G U64C	0.406
A10G U64A	0.33
A10U C39G	0.913
A10U C39U	0.984
A10U C39A	0.84
A10G U62A	0.578
A10G U62G	0.448
A10G G37C	0.175
A10G U43A	0.455
A10G U43C	0.651

Variant	self-cleavage
A10G U43G	0.344
A10U C24A	0.796
A10U C24G	0.569
A10U C24U	0.82
A10U A59U	0.879
A10U A59C	0.778
A10U C27G	0.17
A10U C63G	0.591
A10U C63A	0.825
A10U G14C	0.482
A10U G14A	0.622
A10U C12G	0.859
A10G C33A	0.926
A10G A16U	0.452
A10G A16G	0.894
A10G A16C	0.145
A10U C34G	1.01
A10U C34A	0.983
A10U C22U	0.436
A10U C22G	0.174
A10G G56U	0.567
A10G G56C	0.473
A10G G56A	0.784
A10G C39G	0.595

Variant	self-cleavage
A10G C39U	0.633
A10G C39A	0.42
A10G G11C	0.79
A10G G11U	0.743
A10G G11A	0.143
A10G C66U	0.645
A10G C66G	0.35
A10G C54A	0.527
A10G C54U	0.8
A10G C54G	0.404
A10U C35U	0.976
A10G C32G	0.762
A10U C29U	0.361
A10U C29G	0.431
A10G G17A	0.132
A10G G17U	0.106
A10G G25C	0.125
A10G C24A	0.615
A10G C24U	0.186
A10G C24G	0.297
A10G G50U	0.87
A10G G50C	0.818
A10G G41U	0.466
A10U C32A	0.93

Variant	self-cleavage
A10U C32G	0.64
A10U C32U	1.02
A10G C29G	0.225
A10G G19U	0.162
A10G G19A	0.157
A10G G19C	0.104
A10G A15G	0.786
A10G A15U	0.253
A10G A15C	0.254
A10U C66U	1.01
A10G C27A	0.857
A10G C27G	0.199
A10G G58A	0.969
A10G G58C	0.888
A10U A40U	0.911
A10U A40C	0.516
A10G G14A	0.195
A10G G14U	0.12
A10G A23U	0.748
A10G A23G	0.832
A10G U20G	0.135
A10G U20C	0.115
A10G G65C	0.288
A10G U67A	0.847

Variant	self-cleavage
A10G U67G	0.757
A10G A51C	0.73
A10G A51G	0.857
A10G A51U	0.825
A10U G11U	0.908
A10G A42G	0.636
A10G A42U	0.78
A10U A15G	0.999
A10U A15U	0.772
A10G G48C	0.968
A10G G48A	0.898
A10G G48U	1
A10G U44A	0.702
A10G U44C	0.498
A10G G28U	0.142
A10G G28A	0.254
A10G A40C	0.201
A10G A40G	0.728
A10G C63U	0.615
A10G C63G	0.338
A10G C63A	0.253
A10U G17C	0.168
A10U A60C	0.384
A10U A60U	0.58

Variant	self-cleavage
A10U C18G	0.182
A10G U46C	0.907
A10G U46G	0.901
A10G C45A	0.784
A10G C45U	0.901
A10G G30C	0.94
A10G A52U	0.834
A10G A52C	0.776
A10U A42U	0.999
A10U A42G	0.899
A10U A16C	0.281
A10G U55A	0.407
A10G U55C	0.407
A10G U21A	0.83
A10G U21G	0.39
A10G U21C	0.619
A10G A60G	0.656
A10U C54U	1.01
A10G U53G	0.646
A10G U61C	0.291
A10G U61G	0.468
A10U C57U	0.369
A10U C57G	0.307
